Biological target: gp120 YU2 (HIV, type R5 isolate YU2) (UniProt P35961)
Test: SPR, indirect; rising concentrations of mCD4 mixed with unlinked HS12Lb, co-incubated with 40 nM gp120 YU2; readout: gp120 bound to the mAb 17b surface [bottom panel]

Substance miniCD4 peptide (mCD4) has an EC50 (read off the curve) of 6 nM.

Reference: patent US20110105412A1
